B1: Speckle-type POZ protein (Homo sapiens), O43791 (parent)
chain: MSRVPSPPPPAEMSSGPVAESWCYTQIKVVKFSYMWTINNFSFCREEMGEVIKSSTFSSGANDKLKWCLRVNPKGLDEESKDYLSLYLLLVSCPKSEVRAKFKFSILNAKGEETKAMESQRAYRFVQGKDWGFKKFIRRDFLLDEANGLLPDDKLTLFCEVSVVQDSVNISGQNTMNMVKVPECRLADELGGLWENSRFTDCCLCVAGQEFQAHKAILAARSPVFSAMFEHEMEESKKNRVEINDVEPEVFKEMMCFIYTGKAPNLDKMADDLLAAADKYALERLKVMCEDALCSNLSVENAAEILILADLHSADQLKTQAVDFINYHASDVLETSGWKSMVVSHPHLVAEAYRSLASAQCPFLGPPRKRLKQS

Variants of B1 are the subject of the first assay. To be noted: with za2g_human AZGP1, P25311.
za2g_human AZGP1, P25311, sequence (P25311 whole entry): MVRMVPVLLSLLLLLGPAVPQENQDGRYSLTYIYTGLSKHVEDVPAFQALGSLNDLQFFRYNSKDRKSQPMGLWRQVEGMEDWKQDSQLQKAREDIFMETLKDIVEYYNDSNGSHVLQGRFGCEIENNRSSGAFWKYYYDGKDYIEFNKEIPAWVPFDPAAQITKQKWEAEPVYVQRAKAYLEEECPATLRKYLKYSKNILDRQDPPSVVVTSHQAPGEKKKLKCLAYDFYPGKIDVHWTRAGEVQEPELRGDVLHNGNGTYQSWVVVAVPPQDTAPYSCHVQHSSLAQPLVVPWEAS
For MSRVPSPPPPAEMSSGPVAESWCYTQIKVVKFSYMWTINNFSFCREEMGEVIKSSTFSSGANDKLKWCLRVNPKGLDEESKDYLSLCLLLVSCPKSEVRAKFKFSILNAKGEETKAMESQRAYRFVQGKDWGFKKFIRRDFLLDEANGLLPDDKLTLFCEVSVVQDSVNISGQNTMNMVKVPECRLADELGGLWENSRFTDCCLCVAGQEFQAHKAILAARSPVFSAMFEHEMEESKKNRVEINDVEPEVFKEMMCFIYTGKAPNLDKMADDLLAAADKYALERLKVMCEDALCSNLSVENAAEILILADLHSADQLKTQAVDFINYHASDVLETSGWKSMVVSHPHLVAEAYRSLASAQCPFLGPPRKRLKQS [Y87C], the “effect of a mutation on the interaction” value is given as “with no effect”.

In the next assay the parent is B1. To be noted: with b2mg_human B2M.
As to MSRVPSPPPPAEMSSGPVAESWCYTQIKVVKFSYMWTINNFSFCREEMGEVIKSSTFSSGANDKLKWCLRVNPKGLDEESKDYLSLCLLLVSCPKSEVRAKFKFSILNAKGEETKAMESQRAYRFVQGKDWGFKKFIRRDFLLDEANGLLPDDKLTLFCEVSVVQDSVNISGQNTMNMVKVPECRLADELGGLWENSRFTDCCLCVAGQEFQAHKAILAARSPVFSAMFEHEMEESKKNRVEINDVEPEVFKEMMCFIYTGKAPNLDKMADDLLAAADKYALERLKVMCEDALCSNLSVENAAEILILADLHSADQLKTQAVDFINYHASDVLETSGWKSMVVSHPHLVAEAYRSLASAQCPFLGPPRKRLKQS [Y87C], the “effect of a mutation on the interaction” value is “with no effect”.

In another assay the parent is B1. Conditions: with bap1_human BAP1, Q92560.
bap1_human BAP1, Q92560, sequence (Q92560 whole entry): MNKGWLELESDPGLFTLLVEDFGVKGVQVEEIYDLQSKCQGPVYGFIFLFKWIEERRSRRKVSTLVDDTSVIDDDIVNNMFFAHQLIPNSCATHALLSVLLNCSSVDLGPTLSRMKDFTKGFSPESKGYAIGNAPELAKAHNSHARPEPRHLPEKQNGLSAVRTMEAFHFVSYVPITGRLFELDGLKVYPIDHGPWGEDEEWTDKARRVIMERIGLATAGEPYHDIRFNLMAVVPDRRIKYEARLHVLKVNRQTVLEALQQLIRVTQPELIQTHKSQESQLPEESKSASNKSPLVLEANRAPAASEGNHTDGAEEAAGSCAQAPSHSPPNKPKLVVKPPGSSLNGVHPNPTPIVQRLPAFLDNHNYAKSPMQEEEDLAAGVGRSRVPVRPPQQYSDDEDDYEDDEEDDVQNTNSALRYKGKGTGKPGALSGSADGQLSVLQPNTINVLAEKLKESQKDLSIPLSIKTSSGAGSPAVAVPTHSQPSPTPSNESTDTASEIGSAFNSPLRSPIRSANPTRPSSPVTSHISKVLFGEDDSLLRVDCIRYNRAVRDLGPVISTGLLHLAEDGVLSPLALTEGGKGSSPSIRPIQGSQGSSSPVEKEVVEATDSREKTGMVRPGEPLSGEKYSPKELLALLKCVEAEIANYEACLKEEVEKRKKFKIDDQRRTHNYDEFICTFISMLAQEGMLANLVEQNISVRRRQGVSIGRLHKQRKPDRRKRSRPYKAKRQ
As for MSRVPSPPPPAEMSSGPVAESWCYTQIKVVKFSYMWTINNFSFCREEMGEVIKSSTFSSGANDKLKWCLRVNPKGLDEESKDYLSLCLLLVSCPKSEVRAKFKFSILNAKGEETKAMESQRAYRFVQGKDWGFKKFIRRDFLLDEANGLLPDDKLTLFCEVSVVQDSVNISGQNTMNMVKVPECRLADELGGLWENSRFTDCCLCVAGQEFQAHKAILAARSPVFSAMFEHEMEESKKNRVEINDVEPEVFKEMMCFIYTGKAPNLDKMADDLLAAADKYALERLKVMCEDALCSNLSVENAAEILILADLHSADQLKTQAVDFINYHASDVLETSGWKSMVVSHPHLVAEAYRSLASAQCPFLGPPRKRLKQS [Y87C], the “effect of a mutation on the interaction” value is listed as “with no effect”.

Variants of B1 are the subject of another assay. To be noted: with bcor_human BCOR.
In the case of MSRVPSPPPPAEMSSGPVAESWCYTQIKVVKFSYMWTINNFSFCREEMGEVIKSSTFSSGANDKLKWCLRVNPKGLDEESKDYLSLCLLLVSCPKSEVRAKFKFSILNAKGEETKAMESQRAYRFVQGKDWGFKKFIRRDFLLDEANGLLPDDKLTLFCEVSVVQDSVNISGQNTMNMVKVPECRLADELGGLWENSRFTDCCLCVAGQEFQAHKAILAARSPVFSAMFEHEMEESKKNRVEINDVEPEVFKEMMCFIYTGKAPNLDKMADDLLAAADKYALERLKVMCEDALCSNLSVENAAEILILADLHSADQLKTQAVDFINYHASDVLETSGWKSMVVSHPHLVAEAYRSLASAQCPFLGPPRKRLKQS [Y87C], the “effect of a mutation on the interaction” value is listed as “with no effect”.

The next assay covers variants of B1. To be noted: with bcorl_human BCORL1, Q5H9F3.
With MSRVPSPPPPAEMSSGPVAESWCYTQIKVVKFSYMWTINNFSFCREEMGEVIKSSTFSSGANDKLKWCLRVNPKGLDEESKDYLSLCLLLVSCPKSEVRAKFKFSILNAKGEETKAMESQRAYRFVQGKDWGFKKFIRRDFLLDEANGLLPDDKLTLFCEVSVVQDSVNISGQNTMNMVKVPECRLADELGGLWENSRFTDCCLCVAGQEFQAHKAILAARSPVFSAMFEHEMEESKKNRVEINDVEPEVFKEMMCFIYTGKAPNLDKMADDLLAAADKYALERLKVMCEDALCSNLSVENAAEILILADLHSADQLKTQAVDFINYHASDVLETSGWKSMVVSHPHLVAEAYRSLASAQCPFLGPPRKRLKQS [Y87C], the “effect of a mutation on the interaction” value was “with no effect”.

A further assay covers variants of B1. To be noted: with birc2_human BIRC2, Q13490.
birc2_human BIRC2, Q13490, sequence (Q13490 whole entry): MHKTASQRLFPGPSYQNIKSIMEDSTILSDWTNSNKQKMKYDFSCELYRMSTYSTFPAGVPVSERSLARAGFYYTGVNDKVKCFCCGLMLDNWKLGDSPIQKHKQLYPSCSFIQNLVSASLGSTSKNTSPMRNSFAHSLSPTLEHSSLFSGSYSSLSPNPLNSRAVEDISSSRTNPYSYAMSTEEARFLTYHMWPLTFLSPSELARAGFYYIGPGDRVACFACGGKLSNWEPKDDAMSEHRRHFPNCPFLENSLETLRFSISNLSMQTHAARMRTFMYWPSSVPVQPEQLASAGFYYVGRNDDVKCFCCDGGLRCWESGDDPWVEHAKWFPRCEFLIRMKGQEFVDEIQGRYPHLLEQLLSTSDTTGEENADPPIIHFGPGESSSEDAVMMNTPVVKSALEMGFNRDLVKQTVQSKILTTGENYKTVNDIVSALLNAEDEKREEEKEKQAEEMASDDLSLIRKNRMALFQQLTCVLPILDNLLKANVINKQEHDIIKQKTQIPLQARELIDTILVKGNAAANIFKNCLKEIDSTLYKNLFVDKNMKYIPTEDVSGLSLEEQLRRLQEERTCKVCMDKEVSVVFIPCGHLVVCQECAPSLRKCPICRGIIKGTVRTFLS
In the case of MSRVPSPPPPAEMSSGPVAESWCYTQIKVVKFSYMWTINNFSFCREEMGEVIKSSTFSSGANDKLKWCLRVNPKGLDEESKDYLSLCLLLVSCPKSEVRAKFKFSILNAKGEETKAMESQRAYRFVQGKDWGFKKFIRRDFLLDEANGLLPDDKLTLFCEVSVVQDSVNISGQNTMNMVKVPECRLADELGGLWENSRFTDCCLCVAGQEFQAHKAILAARSPVFSAMFEHEMEESKKNRVEINDVEPEVFKEMMCFIYTGKAPNLDKMADDLLAAADKYALERLKVMCEDALCSNLSVENAAEILILADLHSADQLKTQAVDFINYHASDVLETSGWKSMVVSHPHLVAEAYRSLASAQCPFLGPPRKRLKQS [Y87C], the “effect of a mutation on the interaction” value was “with no effect”.

Variants of B1 are the subject of a further assay. To be noted: with brd4_human BRD4, O60885.
For MSRVPSPPPPAEMSSGPVAESWCYTQIKVVKFSYMWTINNFSFCREEMGEVIKSSTFSSGANDKLKWCLRVNPKGLDEESKDYLSLCLLLVSCPKSEVRAKFKFSILNAKGEETKAMESQRAYRFVQGKDWGFKKFIRRDFLLDEANGLLPDDKLTLFCEVSVVQDSVNISGQNTMNMVKVPECRLADELGGLWENSRFTDCCLCVAGQEFQAHKAILAARSPVFSAMFEHEMEESKKNRVEINDVEPEVFKEMMCFIYTGKAPNLDKMADDLLAAADKYALERLKVMCEDALCSNLSVENAAEILILADLHSADQLKTQAVDFINYHASDVLETSGWKSMVVSHPHLVAEAYRSLASAQCPFLGPPRKRLKQS [Y87C], the “effect of a mutation on the interaction” value is reported as “with no effect”.

Variants of B1 are the subject of the next assay. To be noted: with baba2_human BABAM2, Q9NXR7.
baba2_human BABAM2, Q9NXR7, sequence (Q9NXR7 whole entry): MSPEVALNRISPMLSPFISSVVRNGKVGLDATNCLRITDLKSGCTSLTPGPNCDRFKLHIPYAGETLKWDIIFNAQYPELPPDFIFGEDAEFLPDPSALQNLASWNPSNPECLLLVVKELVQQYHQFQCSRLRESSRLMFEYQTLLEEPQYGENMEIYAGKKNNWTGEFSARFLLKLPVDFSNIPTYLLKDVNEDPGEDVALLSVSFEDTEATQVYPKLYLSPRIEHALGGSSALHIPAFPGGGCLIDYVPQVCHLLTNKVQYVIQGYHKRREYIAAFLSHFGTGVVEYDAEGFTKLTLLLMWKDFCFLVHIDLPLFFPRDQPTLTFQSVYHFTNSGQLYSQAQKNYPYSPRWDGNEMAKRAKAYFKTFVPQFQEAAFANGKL
With MSRVPSPPPPAEMSSGPVAESWCYTQIKVVKFSYMWTINNFSFCREEMGEVIKSSTFSSGANDKLKWCLRVNPKGLDEESKDYLSLCLLLVSCPKSEVRAKFKFSILNAKGEETKAMESQRAYRFVQGKDWGFKKFIRRDFLLDEANGLLPDDKLTLFCEVSVVQDSVNISGQNTMNMVKVPECRLADELGGLWENSRFTDCCLCVAGQEFQAHKAILAARSPVFSAMFEHEMEESKKNRVEINDVEPEVFKEMMCFIYTGKAPNLDKMADDLLAAADKYALERLKVMCEDALCSNLSVENAAEILILADLHSADQLKTQAVDFINYHASDVLETSGWKSMVVSHPHLVAEAYRSLASAQCPFLGPPRKRLKQS [Y87C], the “effect of a mutation on the interaction” value is “with no effect”.

In a further assay the parent is B1. Conditions: with btg1_human BTG1, P62324.
btg1_human BTG1, P62324, sequence (P62324 whole entry): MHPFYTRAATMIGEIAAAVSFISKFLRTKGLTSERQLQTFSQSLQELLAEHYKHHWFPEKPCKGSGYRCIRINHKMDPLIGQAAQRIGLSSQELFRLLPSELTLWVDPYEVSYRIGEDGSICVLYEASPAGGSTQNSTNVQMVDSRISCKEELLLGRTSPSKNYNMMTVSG
For MSRVPSPPPPAEMSSGPVAESWCYTQIKVVKFSYMWTINNFSFCREEMGEVIKSSTFSSGANDKLKWCLRVNPKGLDEESKDYLSLCLLLVSCPKSEVRAKFKFSILNAKGEETKAMESQRAYRFVQGKDWGFKKFIRRDFLLDEANGLLPDDKLTLFCEVSVVQDSVNISGQNTMNMVKVPECRLADELGGLWENSRFTDCCLCVAGQEFQAHKAILAARSPVFSAMFEHEMEESKKNRVEINDVEPEVFKEMMCFIYTGKAPNLDKMADDLLAAADKYALERLKVMCEDALCSNLSVENAAEILILADLHSADQLKTQAVDFINYHASDVLETSGWKSMVVSHPHLVAEAYRSLASAQCPFLGPPRKRLKQS [Y87C], the “effect of a mutation on the interaction” value is “with no effect”.

The variants in a further assay derive from B1. Conditions: with ccnd1_human CCND1, P24385.
ccnd1_human CCND1, P24385, sequence (P24385 whole entry): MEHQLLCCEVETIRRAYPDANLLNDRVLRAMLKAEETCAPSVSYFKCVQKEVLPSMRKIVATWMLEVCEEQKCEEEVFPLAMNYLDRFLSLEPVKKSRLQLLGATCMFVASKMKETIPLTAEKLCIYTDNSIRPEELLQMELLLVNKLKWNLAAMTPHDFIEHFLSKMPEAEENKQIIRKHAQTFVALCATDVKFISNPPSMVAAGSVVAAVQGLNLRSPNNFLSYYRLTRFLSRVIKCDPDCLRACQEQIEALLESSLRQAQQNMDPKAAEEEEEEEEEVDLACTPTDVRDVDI
On to MSRVPSPPPPAEMSSGPVAESWCYTQIKVVKFSYMWTINNFSFCREEMGEVIKSSTFSSGANDKLKWCLRVNPKGLDEESKDYLSLCLLLVSCPKSEVRAKFKFSILNAKGEETKAMESQRAYRFVQGKDWGFKKFIRRDFLLDEANGLLPDDKLTLFCEVSVVQDSVNISGQNTMNMVKVPECRLADELGGLWENSRFTDCCLCVAGQEFQAHKAILAARSPVFSAMFEHEMEESKKNRVEINDVEPEVFKEMMCFIYTGKAPNLDKMADDLLAAADKYALERLKVMCEDALCSNLSVENAAEILILADLHSADQLKTQAVDFINYHASDVLETSGWKSMVVSHPHLVAEAYRSLASAQCPFLGPPRKRLKQS [Y87C], for which the “effect of a mutation on the interaction” value is given as “with no effect”.

In the next assay the parent is B1. Conditions: with ccnd2_human CCND2, P30279.
ccnd2_human CCND2, P30279, sequence (P30279 whole entry): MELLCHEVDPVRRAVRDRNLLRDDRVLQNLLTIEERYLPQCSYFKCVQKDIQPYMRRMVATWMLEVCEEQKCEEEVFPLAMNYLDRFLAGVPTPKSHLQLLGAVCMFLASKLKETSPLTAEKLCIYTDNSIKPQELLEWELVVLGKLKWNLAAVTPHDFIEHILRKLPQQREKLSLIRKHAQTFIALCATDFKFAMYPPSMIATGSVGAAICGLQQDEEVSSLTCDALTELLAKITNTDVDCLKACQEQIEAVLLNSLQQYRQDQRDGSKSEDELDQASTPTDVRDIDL
Consider MSRVPSPPPPAEMSSGPVAESWCYTQIKVVKFSYMWTINNFSFCREEMGEVIKSSTFSSGANDKLKWCLRVNPKGLDEESKDYLSLCLLLVSCPKSEVRAKFKFSILNAKGEETKAMESQRAYRFVQGKDWGFKKFIRRDFLLDEANGLLPDDKLTLFCEVSVVQDSVNISGQNTMNMVKVPECRLADELGGLWENSRFTDCCLCVAGQEFQAHKAILAARSPVFSAMFEHEMEESKKNRVEINDVEPEVFKEMMCFIYTGKAPNLDKMADDLLAAADKYALERLKVMCEDALCSNLSVENAAEILILADLHSADQLKTQAVDFINYHASDVLETSGWKSMVVSHPHLVAEAYRSLASAQCPFLGPPRKRLKQS [Y87C], for which the “effect of a mutation on the interaction” value is recorded as “with no effect”.

The variants in a further assay derive from B1. Conditions: with ccnd3_human CCND3, P30281.
ccnd3_human CCND3, P30281, sequence (P30281 whole entry): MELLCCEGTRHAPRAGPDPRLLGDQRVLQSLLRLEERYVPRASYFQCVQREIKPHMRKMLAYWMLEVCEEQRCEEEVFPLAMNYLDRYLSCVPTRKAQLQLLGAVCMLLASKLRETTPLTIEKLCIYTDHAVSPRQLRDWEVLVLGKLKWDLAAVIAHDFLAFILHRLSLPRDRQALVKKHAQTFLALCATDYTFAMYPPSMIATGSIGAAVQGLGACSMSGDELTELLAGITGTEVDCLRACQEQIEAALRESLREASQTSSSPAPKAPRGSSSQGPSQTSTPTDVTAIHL
For MSRVPSPPPPAEMSSGPVAESWCYTQIKVVKFSYMWTINNFSFCREEMGEVIKSSTFSSGANDKLKWCLRVNPKGLDEESKDYLSLCLLLVSCPKSEVRAKFKFSILNAKGEETKAMESQRAYRFVQGKDWGFKKFIRRDFLLDEANGLLPDDKLTLFCEVSVVQDSVNISGQNTMNMVKVPECRLADELGGLWENSRFTDCCLCVAGQEFQAHKAILAARSPVFSAMFEHEMEESKKNRVEINDVEPEVFKEMMCFIYTGKAPNLDKMADDLLAAADKYALERLKVMCEDALCSNLSVENAAEILILADLHSADQLKTQAVDFINYHASDVLETSGWKSMVVSHPHLVAEAYRSLASAQCPFLGPPRKRLKQS [Y87C], the “effect of a mutation on the interaction” value is given as “with no effect”.

The variants in a further assay derive from B1. Conditions: with ccne1_human CCNE1, P24864.
ccne1_human CCNE1, P24864, sequence (P24864 whole entry): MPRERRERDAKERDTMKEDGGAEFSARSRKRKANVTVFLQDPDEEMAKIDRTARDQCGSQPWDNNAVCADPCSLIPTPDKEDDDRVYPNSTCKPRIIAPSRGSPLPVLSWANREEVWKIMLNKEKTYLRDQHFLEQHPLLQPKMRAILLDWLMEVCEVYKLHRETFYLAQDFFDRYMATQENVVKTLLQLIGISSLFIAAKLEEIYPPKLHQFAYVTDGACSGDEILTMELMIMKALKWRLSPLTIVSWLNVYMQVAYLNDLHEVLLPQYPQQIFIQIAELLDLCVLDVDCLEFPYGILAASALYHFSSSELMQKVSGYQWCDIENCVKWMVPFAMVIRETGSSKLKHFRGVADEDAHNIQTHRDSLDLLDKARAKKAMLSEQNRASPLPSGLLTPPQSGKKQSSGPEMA
Take MSRVPSPPPPAEMSSGPVAESWCYTQIKVVKFSYMWTINNFSFCREEMGEVIKSSTFSSGANDKLKWCLRVNPKGLDEESKDYLSLCLLLVSCPKSEVRAKFKFSILNAKGEETKAMESQRAYRFVQGKDWGFKKFIRRDFLLDEANGLLPDDKLTLFCEVSVVQDSVNISGQNTMNMVKVPECRLADELGGLWENSRFTDCCLCVAGQEFQAHKAILAARSPVFSAMFEHEMEESKKNRVEINDVEPEVFKEMMCFIYTGKAPNLDKMADDLLAAADKYALERLKVMCEDALCSNLSVENAAEILILADLHSADQLKTQAVDFINYHASDVLETSGWKSMVVSHPHLVAEAYRSLASAQCPFLGPPRKRLKQS [Y87C]: the “effect of a mutation on the interaction” value is listed as “with no effect”.

Variants of B1 are the subject of another assay. To be noted: with cd44_human CD44, P16070.
cd44_human CD44, P16070, sequence (P16070 whole entry): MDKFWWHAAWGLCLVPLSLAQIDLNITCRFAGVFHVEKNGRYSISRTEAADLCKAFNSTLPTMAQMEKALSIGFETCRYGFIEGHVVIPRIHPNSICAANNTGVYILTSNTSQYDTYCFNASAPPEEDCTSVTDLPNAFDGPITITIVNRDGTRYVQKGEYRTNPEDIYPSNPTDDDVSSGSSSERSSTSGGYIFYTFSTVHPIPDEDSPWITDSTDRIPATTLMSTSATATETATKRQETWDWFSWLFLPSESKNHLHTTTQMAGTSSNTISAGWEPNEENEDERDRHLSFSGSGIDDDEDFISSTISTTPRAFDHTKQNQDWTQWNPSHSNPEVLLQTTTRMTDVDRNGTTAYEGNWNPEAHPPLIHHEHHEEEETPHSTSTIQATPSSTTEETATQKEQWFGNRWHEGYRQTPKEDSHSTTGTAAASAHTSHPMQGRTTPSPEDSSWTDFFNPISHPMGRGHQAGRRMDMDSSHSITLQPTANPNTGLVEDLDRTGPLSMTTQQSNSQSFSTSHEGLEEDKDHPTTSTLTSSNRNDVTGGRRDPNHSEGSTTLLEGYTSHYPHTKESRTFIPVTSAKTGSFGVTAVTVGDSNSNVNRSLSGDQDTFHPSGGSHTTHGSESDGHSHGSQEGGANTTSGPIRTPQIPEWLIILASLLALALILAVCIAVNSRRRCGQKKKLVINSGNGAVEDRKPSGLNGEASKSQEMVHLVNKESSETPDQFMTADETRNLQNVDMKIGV
In the case of MSRVPSPPPPAEMSSGPVAESWCYTQIKVVKFSYMWTINNFSFCREEMGEVIKSSTFSSGANDKLKWCLRVNPKGLDEESKDYLSLCLLLVSCPKSEVRAKFKFSILNAKGEETKAMESQRAYRFVQGKDWGFKKFIRRDFLLDEANGLLPDDKLTLFCEVSVVQDSVNISGQNTMNMVKVPECRLADELGGLWENSRFTDCCLCVAGQEFQAHKAILAARSPVFSAMFEHEMEESKKNRVEINDVEPEVFKEMMCFIYTGKAPNLDKMADDLLAAADKYALERLKVMCEDALCSNLSVENAAEILILADLHSADQLKTQAVDFINYHASDVLETSGWKSMVVSHPHLVAEAYRSLASAQCPFLGPPRKRLKQS [Y87C], the “effect of a mutation on the interaction” value is “with no effect”.

Variants of B1 are the subject of the next assay. Conditions: with cd79b_human CD79B.
In the case of MSRVPSPPPPAEMSSGPVAESWCYTQIKVVKFSYMWTINNFSFCREEMGEVIKSSTFSSGANDKLKWCLRVNPKGLDEESKDYLSLCLLLVSCPKSEVRAKFKFSILNAKGEETKAMESQRAYRFVQGKDWGFKKFIRRDFLLDEANGLLPDDKLTLFCEVSVVQDSVNISGQNTMNMVKVPECRLADELGGLWENSRFTDCCLCVAGQEFQAHKAILAARSPVFSAMFEHEMEESKKNRVEINDVEPEVFKEMMCFIYTGKAPNLDKMADDLLAAADKYALERLKVMCEDALCSNLSVENAAEILILADLHSADQLKTQAVDFINYHASDVLETSGWKSMVVSHPHLVAEAYRSLASAQCPFLGPPRKRLKQS [Y87C], the “effect of a mutation on the interaction” value is recorded as “with no effect”.

The values are drawn from IntAct's records for PubMed 35512704.
